Test results: patent US20150004189A1 (published 2015)

Key:
[1] = target: HLA-DQ molecule DQB1*0503 (human); assay: inhibition of radiolabeled peptide binding to purified HLA
[2] = target: T1, HLA-DQ molecule DQB1*0501 (human, limits assumed); assay: as above
T1 MHC II alpha: not shown
T1 MHC II beta: not shown

[3] = target: HLA-DQ molecule DQB1*0502 (human); assay: as above
[4] = target: HLA-DQ molecule DQB1*0602 (human); assay: as above
[5] = target: HLA-DQ molecule DQB1*0202 (human); assay: as above
HLA-DP DPB1*0401 = target: T2, HLA-DP DPB1*0401 (human); assay: inhibition of radiolabeled peptide binding to purified HLA-DP
T2 chain 1: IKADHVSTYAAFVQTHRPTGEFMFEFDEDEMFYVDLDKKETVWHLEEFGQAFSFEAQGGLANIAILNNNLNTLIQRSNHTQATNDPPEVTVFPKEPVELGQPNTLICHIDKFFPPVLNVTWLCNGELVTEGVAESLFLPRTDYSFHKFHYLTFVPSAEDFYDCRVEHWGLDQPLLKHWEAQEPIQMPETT
T2 chain 2: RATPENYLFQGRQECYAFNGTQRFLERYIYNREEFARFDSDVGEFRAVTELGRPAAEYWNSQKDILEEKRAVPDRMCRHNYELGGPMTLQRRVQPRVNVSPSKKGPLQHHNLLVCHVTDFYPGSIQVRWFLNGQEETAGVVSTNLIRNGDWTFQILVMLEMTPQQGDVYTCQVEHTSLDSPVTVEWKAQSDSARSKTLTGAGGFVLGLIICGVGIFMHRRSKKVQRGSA

[6] = target: HLA-DQ molecule DQB1*0602 (human); assay: inhibition of radiolabeled peptide binding to purified HLA-DQ
[7] = target: T3, HLA-DQ molecule DQB1*0402 (human, UniProt P01909 24-216; P01920 33-230, limits assumed); assay: as above
T3 MHC II alpha: not shown
T3 MHC II beta: not shown

[8] = target: HLA-DQ molecule DQB1*0503 (human); assay: as above
[9] = target: HLA-DQ molecule DQB1*0301 (human, UniProt P01909 24-216; P01920 33-230, limits assumed); assay: as above
[10] = target: HLA-DQ molecule DQB1*0202 (human); assay: as above
[11] = target: T4, HLA-DQ molecule DQB1*0302 (human, UniProt P01909 24-216; P01920 33-230, limits assumed); assay: as above
T4 MHC II alpha: not shown
T4 MHC II beta: not shown

[12] = target: T5, HLA-DQ molecule DQB1*0501 (human, limits assumed); assay: as above
T5 MHC II alpha: not shown
T5 MHC II beta: not shown

Binder: EIYNMVKFRMIAGQE [Der p 4 peptide 3324.0978 (position 386)]
- IC50 [1]: 11.2 µM
- IC50 [2]: 3.71 µM
- IC50 [3]: 26.6 µM
- IC50 [4]: 0.368 µM
- IC50 [5]: 29.1 µM

Binder: EGTVDFIFGEARSLY [Sal k 1 1 peptide 191-205, EGTVDFIFGEARSLY (Peptide ID 3324.1590)]
- IC50 (HLA-DP DPB1*0401): 2.04 µM

Binder: NLNIKLNMPLYIAGN [Cha o 1 (96-110) peptide NLNIKLNMPLYIAGN]
- IC50 [6]: 2.86 µM
- IC50 [7]: 30.4 µM
- IC50 [8]: 10.7 µM
- IC50 [9]: 31.9 µM
- IC50 [10]: 39.7 µM
- IC50 [11]: 50 µM

Binder: ERSLWIIFSKNLNIK [Cha o 1 (86-100) peptide ERSLWIIFSKNLNIK]
- IC50 [12]: 0.729 µM
- IC50 [6]: 0.432 µM
- IC50 [8]: 0.301 µM
